# Experimental data as given in the nanobody polyreactivity screen of Harvey et al. (2022).
# Test: yeast display, Sf9 membrane polyspecificity reagent, FACS + sequencing; frameworks hold sequencing errors
# Method in brief: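 Synthetic nanobody libraries on Saccharomyces cerevisiae BJ5465 were galactose-induced for 36–48 hours, stained 1 hour at 4 °C with 10% biotinylated, detergent-solubilized Sf9 membrane reagent and enriched on streptavidin microbeads. FACS then separated cells into low and high (top ~1%) gates by anti-HA (expression) and streptavidin (reagent binding) fluorescence. Genes were colony-PCR amplified, MiSeq 2 × 250 sequenced and CDR-length filtered. A clone's polyreactivity label is that of its gate of origin.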
row,Sequence,polyreactivity (PSR sort gate)
1,QVQLVESGGGLVQAGGSLRLSCAASGFIFRVYAMGWYRQAPGKERELVAAISSSGSSTFYADSVKGRFTISRDNAKNTVYLQMNSLKPEDTAVYYCNAYVRRIVRSYYWGQGTQVTVSS,high polyreactivity
2,QVQLVESGGGLVQAGGSLLISCAASGSTFLLNAMGWYRQAPGKERELVAAITGSGTTTYYADSVKGRFTISRDNAKNTVFLHMNSLKPEDTAVYYCAAYAYYHTGDDYWGQGTQVTVSS,high polyreactivity
3,QVQLVESGGGLVQAGGRLRLSCAASGRIYGLYAMGWYRQAPGKERELVAAITLSGDGTDYADSVKGRFTISRDNAKNTVYLQMTSLKPDDTAVYYCAKVGQYWWNMDYWGQGTQVTVSS,low polyreactivity
4,QVQLVESGGGLVQAGGSLRLSCAASGFTFYRYAMGWYRQAPGKERELVAAISGSGCSKYYADSVKGRFTISRDNAKNTVYLHRNSLKPEDTAVYYCNTVWFYGAKYDYWGQGTQVTVSS,high polyreactivity
5,QVQLVESGGGLVQAGGSLRLSCSASGIILPVYAMGWYRQAPGKEMELVAAISRDGGSTYYSDSVKGLFTISRDNAKNNVYLLMNSLKPEDTAVYYCNAVWRGIYFNGKFDYWGQGTQVTVSS,high polyreactivity
6,QVQLVESGGGLVQAGGSLRLSCAASGRIFRRYVMGWYRQAPGKERELVARIRIRDSNTYYADSVKGRCTISRDNAKNTVYLQMNSLKPEDTAVYYCAVVANYVYSKYDYWGQGTQVTVSS,low polyreactivity
7,QVQLVESGGGLVQAGGSLRLSCAASGSIFRINTMGWYLQAPGKERELVAAISFSGTRTYYADSVKGRFTISRDNAKNTVYLQMNSLKPEDTAVYYCAAAGRYTYRTLRDYWGQGTQVTVSS,high polyreactivity
8,QVQLVESGGGLVQAGGNLRLSCAASGRTFRFNAMGWYRQAPGKERELVAAISFRGGSTYYADSVKGRFTISRDNAKNTVYLQMTSLKPEDTAVYYCAADNPYQGRKFDYWGQGTQVSVSS,high polyreactivity
9,QVQLVESGGGLVQAGGSLRLSCAASGSNFRRNAMGWYRQAPGKERELVAAISSNGGSTYYADSVKGRFTISRDNAKNTVYLQLNSLKPEDSAVYYCNALGRVRYSPRYGYDYWGQGTQVTVSS,high polyreactivity
10,QVQLVESGGGLVQAGGSLRLSCAASGFIFGHYTMGWYRQAPGKERELVAAITTGGRTYYADSVKGRFTISRDNAKNTVYLQMNSLKPEDTAVYYCAARGYIWGQGTQVTVSS,high polyreactivity
11,QVQLVESGGGLVQAGGSLRLSCAASGSTFVYYAMGWYRQAPGKERELVAAIRNGDGTNYADSVKGRFTISRDNAKNTVYLQMNSLKPEDTAVYYCAAPQGEYFYVYEFDYWGQGTQVTVSS,low polyreactivity
12,QVQLVESGGGLVQAGGSLRLSCAASGSIFGLYAMGWYRQAPGKERELVATISKSGVSTYYADSVKGRFTISRDNAKNTVYLQMNSLKPEDTAVYYCNADISRDKDFDYWGQGTQVTVSW,low polyreactivity
13,QVHLVESGGGLVQAGGSLRLSCAASGSTFKRYAMGWYRPAPGKERELVAAIRRGGITNYADSVKGRFTISRDNAKNTVYLQMNSLKPEDTAVYYCAKDGVTYPYSYEYDYWGQGTQVTVSS,low polyreactivity
14,QVQLVESGGGLVQAGGSLRLSCAASGRIFVGNAMVCYKQAPGKERELVAGITSRGGSTYYADSVKGRFTISRDNAKNTVYLQMNSLKQEDTAVYYCASYYRYPSWKFDYWGQGTQVTVSS,high polyreactivity
15,QVQLVESGGGLVQAGGSLRLSCAASGSIFASYALGWYRQAAGKEREFVAAISQSGSRTYNADSVKGRFTISRDNANNTVSLHMNSLKPEDTAVYYCNAKRGTWNYDYWGQGTQVTVSS,high polyreactivity
16,QLRLVESGGGLVQAGGSLRLSCAAYGFIFRNNAMGWYRQAPGKERELVAVISFSGGSTYYADSVKGRFTISRDNAKHTVYLQMNSLKPEDTAVYYCAADDYQVQYDYWGQGTQVTVSS,low polyreactivity
17,QVQLVESGGGLVQAGGSLSLICDASRFTFGFYAMGWYRQAPGKERELHAAISTTVGSTYYADSVKGRFTISRDNAKNTVYLQMNSLKPEDTAVFYCAAEYTGYINYYIYEYWRQGTQVTVSS,low polyreactivity
18,QVQLQESGGGLVQAGGSLRLSCAASGSISRYYDMGWYRQAPGKEREFVAGISGGAITYYADSVKGRFTISRDNAKNTVDLQMNSLKPQDTAVYYCAADTGVYQYHSYWGQGTQVTVSS,low polyreactivity
19,QVQLVESGGGLVQAGGSLRLSCAASGRIGVYAMGWYRQAPGKERELVAAIRRSGGNTYYADSVKGRFTISRDNAKNTVYLQMNSLKPEDTAVYYCAAGRPYRFYPRYDYWGQGTQVTVSS,high polyreactivity
20,QVQLVESGGGLVQAGGSLRLSCAASGNIFAPNAMGWYRQAPGKERELVAAISRSGGSTHYADSVKGRFTISRDNAKNTVYLQMNSLKPEDTAVYYCAAGWYGRYTSKMGYWGQGTQVTVSS,high polyreactivity
21,QVQLVESGGGLVQAGGSLRLICAASGFIFWFYAMGWYRQAPGKERELVASISASGGSTNYADSVKGRFTISRDKAKNTVYLQMNSLKPEDTAVYYCAARKRYQRGYWGQGTQVTVSS,high polyreactivity
